{"source": "paper PMC4031084", "about": "“The Phytochrome B/Phytochrome C Heterodimer Is Necessary for Phytochrome C-Mediated Responses in Rice Seedlings” (PLoS ONE, 2014)", "key": {"recombinant rice phyC": {"target": "T1, recombinant rice phyC (Oryza sativa, UniProt Q10CQ8)", "T1 construct": "full length; phytochromobilin-producing E. coli Rosetta 2; monomer on SEC", "T1 sequence (Q10CQ8 1-1137)": "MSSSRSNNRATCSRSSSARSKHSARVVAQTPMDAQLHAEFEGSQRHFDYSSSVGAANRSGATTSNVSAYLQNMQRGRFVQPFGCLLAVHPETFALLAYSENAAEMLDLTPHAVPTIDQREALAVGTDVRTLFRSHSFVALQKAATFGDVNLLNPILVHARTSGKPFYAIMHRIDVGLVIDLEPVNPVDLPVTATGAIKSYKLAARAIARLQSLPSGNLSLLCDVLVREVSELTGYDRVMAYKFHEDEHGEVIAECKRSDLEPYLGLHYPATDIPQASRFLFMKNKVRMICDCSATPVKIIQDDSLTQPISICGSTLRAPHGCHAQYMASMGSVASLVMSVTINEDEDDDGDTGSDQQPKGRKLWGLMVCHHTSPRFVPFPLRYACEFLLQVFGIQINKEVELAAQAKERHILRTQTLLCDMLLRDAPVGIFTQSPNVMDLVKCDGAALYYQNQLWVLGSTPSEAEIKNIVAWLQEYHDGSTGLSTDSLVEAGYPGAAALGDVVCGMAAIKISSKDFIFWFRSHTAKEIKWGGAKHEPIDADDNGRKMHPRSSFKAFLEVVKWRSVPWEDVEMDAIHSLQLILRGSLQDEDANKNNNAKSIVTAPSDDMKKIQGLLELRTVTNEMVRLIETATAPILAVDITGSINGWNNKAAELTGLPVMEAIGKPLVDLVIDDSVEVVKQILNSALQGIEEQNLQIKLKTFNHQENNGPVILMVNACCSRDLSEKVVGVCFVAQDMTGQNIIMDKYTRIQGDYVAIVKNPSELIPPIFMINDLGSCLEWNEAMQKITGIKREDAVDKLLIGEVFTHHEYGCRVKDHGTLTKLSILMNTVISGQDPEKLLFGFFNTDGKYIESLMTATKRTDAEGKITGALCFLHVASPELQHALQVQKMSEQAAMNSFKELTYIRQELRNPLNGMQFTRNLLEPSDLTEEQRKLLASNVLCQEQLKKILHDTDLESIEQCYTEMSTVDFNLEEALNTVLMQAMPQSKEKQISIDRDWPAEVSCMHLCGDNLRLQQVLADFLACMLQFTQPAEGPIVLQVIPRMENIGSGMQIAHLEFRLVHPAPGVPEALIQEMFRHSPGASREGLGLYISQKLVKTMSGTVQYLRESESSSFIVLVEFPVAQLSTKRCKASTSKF", "assay": "R/FR absorbance difference spectroscopy of the purified holoprotein", "type": "binding", "details": "covalent; chromophore assembled in E. coli"}, "recombinant rice phyA": {"target": "T2, recombinant rice phyA (Oryza sativa, UniProt Q10DU0)", "T2 construct": "full length; phytochromobilin-producing E. coli Rosetta 2; homodimer on SEC", "T2 sequence (Q10DU0 1-1128)": "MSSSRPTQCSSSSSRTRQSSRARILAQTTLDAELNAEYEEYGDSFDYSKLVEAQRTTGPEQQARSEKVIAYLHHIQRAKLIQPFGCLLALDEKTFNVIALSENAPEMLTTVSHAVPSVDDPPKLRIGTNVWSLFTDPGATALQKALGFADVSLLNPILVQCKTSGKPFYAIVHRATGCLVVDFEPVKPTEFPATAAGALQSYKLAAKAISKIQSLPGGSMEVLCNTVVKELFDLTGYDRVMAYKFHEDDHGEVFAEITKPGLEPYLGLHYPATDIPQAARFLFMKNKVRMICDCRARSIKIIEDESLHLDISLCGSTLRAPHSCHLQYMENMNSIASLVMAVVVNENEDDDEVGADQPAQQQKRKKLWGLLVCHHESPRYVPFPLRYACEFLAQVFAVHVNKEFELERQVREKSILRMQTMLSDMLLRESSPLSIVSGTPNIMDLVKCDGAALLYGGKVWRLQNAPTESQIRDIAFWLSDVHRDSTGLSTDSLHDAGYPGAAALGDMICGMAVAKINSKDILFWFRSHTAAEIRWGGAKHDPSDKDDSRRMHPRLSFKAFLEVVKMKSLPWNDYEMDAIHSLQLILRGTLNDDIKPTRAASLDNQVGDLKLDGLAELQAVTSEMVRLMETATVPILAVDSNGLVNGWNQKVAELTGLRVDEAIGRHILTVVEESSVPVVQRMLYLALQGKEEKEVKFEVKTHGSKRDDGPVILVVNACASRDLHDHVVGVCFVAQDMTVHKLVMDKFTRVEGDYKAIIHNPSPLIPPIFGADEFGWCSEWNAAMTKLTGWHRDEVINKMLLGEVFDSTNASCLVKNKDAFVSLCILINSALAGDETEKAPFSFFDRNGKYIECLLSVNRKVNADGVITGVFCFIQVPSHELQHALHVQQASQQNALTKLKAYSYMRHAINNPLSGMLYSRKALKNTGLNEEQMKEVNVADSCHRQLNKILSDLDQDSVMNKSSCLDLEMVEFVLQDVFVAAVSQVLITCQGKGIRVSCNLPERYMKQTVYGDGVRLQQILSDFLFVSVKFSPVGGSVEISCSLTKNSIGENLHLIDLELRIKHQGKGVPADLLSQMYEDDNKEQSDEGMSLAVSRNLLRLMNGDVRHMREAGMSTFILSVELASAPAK", "assay": "R/FR absorbance difference spectroscopy of the purified holoprotein", "type": "binding", "details": "covalent; chromophore assembled in E. coli"}, "[1]": {"target": "the molecule itself", "assay": "SEC; protein extracts (1 mg total soluble protein) of etiolated seedlings of WT and phytochrome single and double mutants on Superdex 200 HR 10/30; 50 mM Na-phosphate pH 7.0, 150 mM NaCl, 4 C; fractions immunoblotted with anti-PHYA, anti-PHYB, anti-PHYC; column calibrated with molecular weight standards"}, "[2]": {"target": "the molecule itself", "assay": "SEC; recombinant phyA or phyC from E. coli fractionated on the same column; fractions #17-#24 immunoblotted with anti-His tag or anti-phytochrome antibodies"}}}
{"molecule": "C=CC1=C(C)C(=CC2=NC(=Cc3[nH]c(C=C4NC(=O)C(C)C4=CC)c(C)c3CCC(=O)O)C(CCC(=O)O)=C2C)NC1=O", "note": "(centres unmarked) [phytochromobilin]", "values": [{"measurement": "R/FR absorbance difference spectroscopy of the purified holoprotein", "setting": "recombinant rice phyC", "result": "Recombinant phyC with phytochromobilins as a chromophore was expressed in E. coli"}, {"measurement": "R/FR absorbance difference spectroscopy of the purified holoprotein", "setting": "recombinant rice phyA", "result": "recombinant phyA was also expressed using the same experimental procedure"}]}
{"molecule": "rice phytochrome A (phyA), native (natural protein, UniProt Q10DU0 1-1128, looked up, phytochrome A of rice (Oryza sativa L. cv. Nipponbare), native protein in seedling extracts; source: endogenous, soluble protein extract of etiolated rice seedlings) MSSSRPTQCSSSSSRTRQSSRARILAQTTLDAELNAEYEEYGDSFDYSKLVEAQRTTGPEQQARSEKVIAYLHHIQRAKLIQPFGCLLALDEKTFNVIALSENAPEMLTTVSHAVPSVDDPPKLRIGTNVWSLFTDPGATALQKALGFADVSLLNPILVQCKTSGKPFYAIVHRATGCLVVDFEPVKPTEFPATAAGALQSYKLAAKAISKIQSLPGGSMEVLCNTVVKELFDLTGYDRVMAYKFHEDDHGEVFAEITKPGLEPYLGLHYPATDIPQAARFLFMKNKVRMICDCRARSIKIIEDESLHLDISLCGSTLRAPHSCHLQYMENMNSIASLVMAVVVNENEDDDEVGADQPAQQQKRKKLWGLLVCHHESPRYVPFPLRYACEFLAQVFAVHVNKEFELERQVREKSILRMQTMLSDMLLRESSPLSIVSGTPNIMDLVKCDGAALLYGGKVWRLQNAPTESQIRDIAFWLSDVHRDSTGLSTDSLHDAGYPGAAALGDMICGMAVAKINSKDILFWFRSHTAAEIRWGGAKHDPSDKDDSRRMHPRLSFKAFLEVVKMKSLPWNDYEMDAIHSLQLILRGTLNDDIKPTRAASLDNQVGDLKLDGLAELQAVTSEMVRLMETATVPILAVDSNGLVNGWNQKVAELTGLRVDEAIGRHILTVVEESSVPVVQRMLYLALQGKEEKEVKFEVKTHGSKRDDGPVILVVNACASRDLHDHVVGVCFVAQDMTVHKLVMDKFTRVEGDYKAIIHNPSPLIPPIFGADEFGWCSEWNAAMTKLTGWHRDEVINKMLLGEVFDSTNASCLVKNKDAFVSLCILINSALAGDETEKAPFSFFDRNGKYIECLLSVNRKVNADGVITGVFCFIQVPSHELQHALHVQQASQQNALTKLKAYSYMRHAINNPLSGMLYSRKALKNTGLNEEQMKEVNVADSCHRQLNKILSDLDQDSVMNKSSCLDLEMVEFVLQDVFVAAVSQVLITCQGKGIRVSCNLPERYMKQTVYGDGVRLQQILSDFLFVSVKFSPVGGSVEISCSLTKNSIGENLHLIDLELRIKHQGKGVPADLLSQMYEDDNKEQSDEGMSLAVSRNLLRLMNGDVRHMREAGMSTFILSVELASAPAK", "values": [{"measurement": "stoichiometry N", "setting": "[1]", "result": 2}]}
{"molecule": "recombinant rice phyA with phytochromobilin (natural protein, UniProt Q10DU0 1-1128, looked up, phytochromobilin as chromophore, full length rice phytochrome A; also called recombinant phyA; source: E. coli Rosetta 2 cells expressing phytochromobilin, purified; not shown: His6, C-terminal, kept) MSSSRPTQCSSSSSRTRQSSRARILAQTTLDAELNAEYEEYGDSFDYSKLVEAQRTTGPEQQARSEKVIAYLHHIQRAKLIQPFGCLLALDEKTFNVIALSENAPEMLTTVSHAVPSVDDPPKLRIGTNVWSLFTDPGATALQKALGFADVSLLNPILVQCKTSGKPFYAIVHRATGCLVVDFEPVKPTEFPATAAGALQSYKLAAKAISKIQSLPGGSMEVLCNTVVKELFDLTGYDRVMAYKFHEDDHGEVFAEITKPGLEPYLGLHYPATDIPQAARFLFMKNKVRMICDCRARSIKIIEDESLHLDISLCGSTLRAPHSCHLQYMENMNSIASLVMAVVVNENEDDDEVGADQPAQQQKRKKLWGLLVCHHESPRYVPFPLRYACEFLAQVFAVHVNKEFELERQVREKSILRMQTMLSDMLLRESSPLSIVSGTPNIMDLVKCDGAALLYGGKVWRLQNAPTESQIRDIAFWLSDVHRDSTGLSTDSLHDAGYPGAAALGDMICGMAVAKINSKDILFWFRSHTAAEIRWGGAKHDPSDKDDSRRMHPRLSFKAFLEVVKMKSLPWNDYEMDAIHSLQLILRGTLNDDIKPTRAASLDNQVGDLKLDGLAELQAVTSEMVRLMETATVPILAVDSNGLVNGWNQKVAELTGLRVDEAIGRHILTVVEESSVPVVQRMLYLALQGKEEKEVKFEVKTHGSKRDDGPVILVVNACASRDLHDHVVGVCFVAQDMTVHKLVMDKFTRVEGDYKAIIHNPSPLIPPIFGADEFGWCSEWNAAMTKLTGWHRDEVINKMLLGEVFDSTNASCLVKNKDAFVSLCILINSALAGDETEKAPFSFFDRNGKYIECLLSVNRKVNADGVITGVFCFIQVPSHELQHALHVQQASQQNALTKLKAYSYMRHAINNPLSGMLYSRKALKNTGLNEEQMKEVNVADSCHRQLNKILSDLDQDSVMNKSSCLDLEMVEFVLQDVFVAAVSQVLITCQGKGIRVSCNLPERYMKQTVYGDGVRLQQILSDFLFVSVKFSPVGGSVEISCSLTKNSIGENLHLIDLELRIKHQGKGVPADLLSQMYEDDNKEQSDEGMSLAVSRNLLRLMNGDVRHMREAGMSTFILSVELASAPAK", "values": [{"measurement": "stoichiometry N", "setting": "[2]", "result": 2}]}
{"molecule": "rice phytochrome B (phyB), native (natural protein, UniProt Q10MG9 1-1171, looked up, phytochrome B of rice (Oryza sativa L. cv. Nipponbare), native protein in seedling extracts; Native photoreceptor; source: endogenous, soluble protein extract of rice seedlings (etiolated or white-light-grown)) MASGSRATPTRSPSSARPAAPRHQHHHSQSSGGSTSRAGGGGGGGGGGGGGAAAAESVSKAVAQYTLDARLHAVFEQSGASGRSFDYTQSLRASPTPSSEQQIAAYLSRIQRGGHIQPFGCTLAVADDSSFRLLAYSENTADLLDLSPHHSVPSLDSSAVPPPVSLGADARLLFAPSSAVLLERAFAAREISLLNPLWIHSRVSSKPFYAILHRIDVGVVIDLEPARTEDPALSIAGAVQSQKLAVRAISRLQALPGGDVKLLCDTVVEYVRELTGYDRVMVYRFHEDEHGEVVAESRRNNLEPYIGLHYPATDIPQASRFLFRQNRVRMIADCHAAPVRVIQDPALTQPLCLVGSTLRSPHGCHAQYMANMGSIASLVMAVIISSGGDDDHNISRGSIPSAMKLWGLVVCHHTSPRCIPFPLRYACEFLMQAFGLQLNMELQLAHQLSEKHILRTQTLLCDMLLRDSPTGIVTQSPSIMDLVKCDGAALYYHGKYYPLGVTPTEVQIKDIIEWLTMCHGDSTGLSTDSLADAGYPGAAALGDAVSGMAVAYITPSDYLFWFRSHTAKEIKWGGAKHHPEDKDDGQRMHPRSSFKAFLEVVKSRSLPWENAEMDAIHSLQLILRDSFRDSAEGTSNSKAIVNGQVQLGELELRGIDELSSVAREMVRLIETATVPIFAVDTDGCINGWNAKVAELTGLSVEEAMGKSLVNDLIFKESEETVNKLLSRALRGDEDKNVEIKLKTFGPEQSKGPIFVIVNACSSRDYTKNIVGVCFVGQDVTGQKVVMDKFINIQGDYKAIVHNPNPLIPPIFASDENTCCSEWNTAMEKLTGWSRGEVVGKLLVGEVFGNCCRLKGPDALTKFMIVLHNAIGGQDCEKFPFSFFDKNGKYVQALLTANTRSRMDGEAIGAFCFLQIASPELQQAFEIQRHHEKKCYARMKELAYIYQEIKNPLNGIRFTNSLLEMTDLKDDQRQFLETSTACEKQMSKIVKDASLQSIEDGSLVLEKGEFSLGSVMNAVVSQVMIQLRERDLQLIRDIPDEIKEASAYGDQYRIQQVLCDFLLSMVRFAPAENGWVEIQVRPNIKQNSDGTDTMLFLFRFACPGEGLPPEIVQDMFSNSRWTTQEGIGLSICRKILKLMGGEVQYIRESERSFFHIVLELPQPQQAASRGTS", "values": [{"measurement": "stoichiometry N", "setting": "[1]", "result": 2}]}
